From PMC8307404, “Crystal Structure-Guided Design of Bisubstrate Inhibitors and Photoluminescent Probes for Protein Kinases of the PIM Family” (Molecules, 2021)
Square brackets hold non-standard residues; d marks the D form. Peptide text beside a SMILES is read from it. * marks the point of attachment. X3 = O=C(CCCCCNCc1nc2c(sc3cc(Br)cnc32)c(=O)[nH]1)*

Assays:
Assay in all cases: Kinase profiling (radiometric filter-binding)
Format in all cases: biochemical
ABL = ABL (Homo sapiens, UniProt P00519); details: 1 µM inhibitor, read-out: Residual activity, %
ABL, sequence (P00519 whole entry): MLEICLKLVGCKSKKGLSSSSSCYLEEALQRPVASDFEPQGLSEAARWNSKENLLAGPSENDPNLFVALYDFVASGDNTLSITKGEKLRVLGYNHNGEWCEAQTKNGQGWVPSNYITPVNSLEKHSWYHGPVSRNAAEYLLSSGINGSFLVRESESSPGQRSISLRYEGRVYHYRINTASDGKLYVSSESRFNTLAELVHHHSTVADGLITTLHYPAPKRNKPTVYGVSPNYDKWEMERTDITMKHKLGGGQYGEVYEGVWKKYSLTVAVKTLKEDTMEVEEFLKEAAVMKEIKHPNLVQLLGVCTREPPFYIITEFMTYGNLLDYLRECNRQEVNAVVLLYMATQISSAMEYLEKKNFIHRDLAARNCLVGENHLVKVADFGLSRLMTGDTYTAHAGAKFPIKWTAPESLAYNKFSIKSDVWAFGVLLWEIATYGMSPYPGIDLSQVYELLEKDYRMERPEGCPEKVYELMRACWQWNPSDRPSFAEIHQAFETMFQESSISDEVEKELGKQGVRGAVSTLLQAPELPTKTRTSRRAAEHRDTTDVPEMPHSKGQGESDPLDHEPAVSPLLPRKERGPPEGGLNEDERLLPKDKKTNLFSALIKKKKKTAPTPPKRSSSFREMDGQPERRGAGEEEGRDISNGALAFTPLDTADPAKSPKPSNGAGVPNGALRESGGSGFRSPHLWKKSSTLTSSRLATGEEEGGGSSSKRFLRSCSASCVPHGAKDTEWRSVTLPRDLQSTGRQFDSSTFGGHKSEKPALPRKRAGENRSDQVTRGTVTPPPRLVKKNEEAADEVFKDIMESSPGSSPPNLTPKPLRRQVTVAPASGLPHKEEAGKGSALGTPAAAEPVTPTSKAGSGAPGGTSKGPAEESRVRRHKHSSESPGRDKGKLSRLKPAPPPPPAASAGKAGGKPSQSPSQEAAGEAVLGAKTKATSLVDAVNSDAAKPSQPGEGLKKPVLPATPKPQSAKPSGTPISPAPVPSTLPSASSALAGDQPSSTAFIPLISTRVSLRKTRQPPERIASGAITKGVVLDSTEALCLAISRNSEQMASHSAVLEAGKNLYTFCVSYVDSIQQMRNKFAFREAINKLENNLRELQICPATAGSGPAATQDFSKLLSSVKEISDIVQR
Method in brief: (§1)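 Single-point selectivity screen at 1 µM total inhibitor concentration across a panel of 139 or 140 human PKs, using radioactive filter-binding detection with ATP near or below KM; data are % activity remaining versus untreated control.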

CSK = CSK (Homo sapiens, UniProt P41240); details: 1 µM inhibitor, read-out: Residual activity, %
CSK, sequence (P41240 whole entry): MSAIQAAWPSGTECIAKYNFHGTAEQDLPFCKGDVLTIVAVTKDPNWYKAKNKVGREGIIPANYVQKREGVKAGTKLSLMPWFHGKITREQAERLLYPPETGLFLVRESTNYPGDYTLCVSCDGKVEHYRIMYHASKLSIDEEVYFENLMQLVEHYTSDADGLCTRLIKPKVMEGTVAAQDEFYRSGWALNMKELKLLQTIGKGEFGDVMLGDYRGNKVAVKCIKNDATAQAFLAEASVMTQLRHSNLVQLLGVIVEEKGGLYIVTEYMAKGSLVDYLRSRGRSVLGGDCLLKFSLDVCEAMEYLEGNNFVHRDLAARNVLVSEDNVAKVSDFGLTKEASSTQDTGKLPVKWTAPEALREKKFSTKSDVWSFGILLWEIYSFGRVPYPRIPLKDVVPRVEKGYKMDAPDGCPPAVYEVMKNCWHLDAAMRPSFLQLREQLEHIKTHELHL
Method in brief: as §1

DYRK2 = molecular target: T1, DYRK2 (Homo sapiens, UniProt Q92630); details: DYRK2, 1 µM inhibitor; read-out: Residual activity, %
T1 sequence (Q92630 1-601): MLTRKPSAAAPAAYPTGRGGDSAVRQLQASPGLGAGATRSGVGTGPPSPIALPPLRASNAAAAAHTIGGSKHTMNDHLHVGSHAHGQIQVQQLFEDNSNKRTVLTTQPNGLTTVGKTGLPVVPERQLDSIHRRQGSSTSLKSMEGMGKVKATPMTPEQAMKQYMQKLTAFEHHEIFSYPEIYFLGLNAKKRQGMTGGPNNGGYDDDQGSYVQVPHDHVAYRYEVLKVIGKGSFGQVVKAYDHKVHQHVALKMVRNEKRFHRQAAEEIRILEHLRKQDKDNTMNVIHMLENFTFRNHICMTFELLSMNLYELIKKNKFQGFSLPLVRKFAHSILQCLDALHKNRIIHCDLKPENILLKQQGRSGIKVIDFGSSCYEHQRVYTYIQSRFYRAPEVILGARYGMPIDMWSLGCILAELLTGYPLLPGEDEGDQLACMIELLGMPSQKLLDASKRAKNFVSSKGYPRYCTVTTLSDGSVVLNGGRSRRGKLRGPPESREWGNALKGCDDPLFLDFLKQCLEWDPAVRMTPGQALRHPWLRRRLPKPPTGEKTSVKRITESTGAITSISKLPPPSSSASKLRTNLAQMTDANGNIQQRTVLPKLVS
Method in brief: as §1

EIF2AK3 = molecular target: T2, EIF2AK3 (Homo sapiens, UniProt Q9NZJ5); details: EIF2AK3, 1 µM inhibitor; read-out: Residual activity, %
T2 sequence (Q9NZJ5 30-1116): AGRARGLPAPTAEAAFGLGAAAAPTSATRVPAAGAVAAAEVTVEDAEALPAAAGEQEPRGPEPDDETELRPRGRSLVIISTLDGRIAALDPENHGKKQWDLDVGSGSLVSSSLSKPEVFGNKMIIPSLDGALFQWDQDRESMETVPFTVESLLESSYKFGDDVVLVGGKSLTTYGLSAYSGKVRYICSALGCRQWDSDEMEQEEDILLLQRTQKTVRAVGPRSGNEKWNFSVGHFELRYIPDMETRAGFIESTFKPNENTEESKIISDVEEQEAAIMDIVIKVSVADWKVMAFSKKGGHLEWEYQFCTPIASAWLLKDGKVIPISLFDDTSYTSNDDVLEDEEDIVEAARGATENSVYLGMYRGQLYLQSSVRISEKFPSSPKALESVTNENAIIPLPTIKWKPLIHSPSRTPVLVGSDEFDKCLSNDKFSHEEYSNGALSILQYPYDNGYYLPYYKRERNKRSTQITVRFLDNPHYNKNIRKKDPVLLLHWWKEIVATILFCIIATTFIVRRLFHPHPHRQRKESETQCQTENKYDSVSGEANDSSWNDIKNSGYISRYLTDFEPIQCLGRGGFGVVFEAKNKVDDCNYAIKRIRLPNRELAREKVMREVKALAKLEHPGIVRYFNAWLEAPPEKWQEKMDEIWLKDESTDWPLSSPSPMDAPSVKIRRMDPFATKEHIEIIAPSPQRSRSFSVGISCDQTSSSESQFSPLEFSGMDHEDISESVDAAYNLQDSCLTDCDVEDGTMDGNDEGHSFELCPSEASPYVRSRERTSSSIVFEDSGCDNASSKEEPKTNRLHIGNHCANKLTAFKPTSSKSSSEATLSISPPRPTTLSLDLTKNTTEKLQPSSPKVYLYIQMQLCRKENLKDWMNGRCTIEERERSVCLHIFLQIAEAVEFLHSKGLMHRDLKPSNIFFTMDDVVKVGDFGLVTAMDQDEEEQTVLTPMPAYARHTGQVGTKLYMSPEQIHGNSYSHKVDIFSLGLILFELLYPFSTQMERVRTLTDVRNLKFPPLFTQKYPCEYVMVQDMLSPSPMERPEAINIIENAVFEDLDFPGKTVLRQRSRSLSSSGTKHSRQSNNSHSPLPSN
Method in brief: as §1

MAPKAP-K2 = MAPKAP-K2 (Homo sapiens, UniProt P49137); details: MAPKAP-K2, 1 µM inhibitor; read-out: Residual activity, %
MAPKAP-K2, sequence (P49137 whole entry): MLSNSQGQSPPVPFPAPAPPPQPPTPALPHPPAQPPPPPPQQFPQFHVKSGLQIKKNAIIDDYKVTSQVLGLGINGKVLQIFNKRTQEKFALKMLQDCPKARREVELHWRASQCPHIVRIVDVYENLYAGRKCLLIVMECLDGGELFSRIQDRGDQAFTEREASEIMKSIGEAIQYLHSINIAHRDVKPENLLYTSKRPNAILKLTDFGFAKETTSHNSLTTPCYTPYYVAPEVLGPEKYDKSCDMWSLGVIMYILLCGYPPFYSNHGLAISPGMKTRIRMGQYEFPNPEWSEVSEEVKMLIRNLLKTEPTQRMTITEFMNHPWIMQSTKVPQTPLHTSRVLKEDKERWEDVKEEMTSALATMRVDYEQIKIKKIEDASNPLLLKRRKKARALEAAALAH
Method in brief: as §1

MKK1 = MKK1 (Homo sapiens, UniProt Q02750); details: MKK1, 1 µM inhibitor; read-out: Residual activity, %
MKK1, sequence (Q02750 whole entry): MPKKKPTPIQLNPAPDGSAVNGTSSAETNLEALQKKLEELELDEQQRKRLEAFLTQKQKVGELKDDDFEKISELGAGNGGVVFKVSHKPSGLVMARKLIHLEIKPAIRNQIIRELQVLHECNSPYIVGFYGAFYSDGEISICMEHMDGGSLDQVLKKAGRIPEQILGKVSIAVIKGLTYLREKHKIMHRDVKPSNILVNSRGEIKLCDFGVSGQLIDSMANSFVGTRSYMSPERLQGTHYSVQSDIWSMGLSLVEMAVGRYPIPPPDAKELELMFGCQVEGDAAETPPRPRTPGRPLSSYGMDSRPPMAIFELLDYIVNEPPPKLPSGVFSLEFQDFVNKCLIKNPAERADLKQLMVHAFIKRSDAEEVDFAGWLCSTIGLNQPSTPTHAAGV
Method in brief: as §1

PHK = PHK (Homo sapiens, UniProt Q16816); details: 1 µM inhibitor, read-out: Residual activity, %
PHK, sequence (Q16816 whole entry): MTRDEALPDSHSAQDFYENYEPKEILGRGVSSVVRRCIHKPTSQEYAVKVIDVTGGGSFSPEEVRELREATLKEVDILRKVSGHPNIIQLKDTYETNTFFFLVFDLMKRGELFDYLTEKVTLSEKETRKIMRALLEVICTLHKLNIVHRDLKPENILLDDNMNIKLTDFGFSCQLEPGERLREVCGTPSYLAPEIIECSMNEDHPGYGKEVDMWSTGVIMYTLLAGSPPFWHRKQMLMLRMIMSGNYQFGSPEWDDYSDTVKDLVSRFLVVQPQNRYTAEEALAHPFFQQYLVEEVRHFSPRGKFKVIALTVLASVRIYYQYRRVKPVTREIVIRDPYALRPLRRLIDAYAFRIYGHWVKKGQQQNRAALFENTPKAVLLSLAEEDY
Method in brief: as §1

TESK1 = TESK1 (Homo sapiens, UniProt Q15569); details: TESK1, 1 µM inhibitor; read-out: Residual activity, %
TESK1, sequence (Q15569 whole entry): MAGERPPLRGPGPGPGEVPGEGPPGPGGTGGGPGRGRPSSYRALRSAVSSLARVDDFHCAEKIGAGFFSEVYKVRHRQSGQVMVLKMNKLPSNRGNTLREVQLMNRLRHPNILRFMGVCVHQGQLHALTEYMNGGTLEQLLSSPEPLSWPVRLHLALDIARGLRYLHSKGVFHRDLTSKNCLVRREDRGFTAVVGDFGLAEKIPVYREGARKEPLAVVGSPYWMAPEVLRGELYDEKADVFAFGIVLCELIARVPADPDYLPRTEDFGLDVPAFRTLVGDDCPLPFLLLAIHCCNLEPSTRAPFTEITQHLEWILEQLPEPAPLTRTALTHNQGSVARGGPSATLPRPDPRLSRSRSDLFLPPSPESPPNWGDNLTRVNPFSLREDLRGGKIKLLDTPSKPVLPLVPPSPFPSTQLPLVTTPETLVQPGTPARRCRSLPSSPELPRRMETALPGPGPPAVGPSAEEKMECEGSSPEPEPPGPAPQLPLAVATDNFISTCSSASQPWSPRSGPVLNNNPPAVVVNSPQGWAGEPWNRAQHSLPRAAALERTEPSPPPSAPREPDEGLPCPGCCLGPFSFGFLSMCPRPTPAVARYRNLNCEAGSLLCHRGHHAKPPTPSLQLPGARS
Method in brief: as §1

TTBK1 = TTBK1 (Homo sapiens, UniProt Q5TCY1); details: TTBK1, 1 µM inhibitor; read-out: Residual activity, %
Method in brief: as §1

IGF-1R = IGF-1R (Homo sapiens, UniProt P08069); details: 1 µM inhibitor, read-out: Residual activity, %
IGF-1R, sequence (P08069 31-1367): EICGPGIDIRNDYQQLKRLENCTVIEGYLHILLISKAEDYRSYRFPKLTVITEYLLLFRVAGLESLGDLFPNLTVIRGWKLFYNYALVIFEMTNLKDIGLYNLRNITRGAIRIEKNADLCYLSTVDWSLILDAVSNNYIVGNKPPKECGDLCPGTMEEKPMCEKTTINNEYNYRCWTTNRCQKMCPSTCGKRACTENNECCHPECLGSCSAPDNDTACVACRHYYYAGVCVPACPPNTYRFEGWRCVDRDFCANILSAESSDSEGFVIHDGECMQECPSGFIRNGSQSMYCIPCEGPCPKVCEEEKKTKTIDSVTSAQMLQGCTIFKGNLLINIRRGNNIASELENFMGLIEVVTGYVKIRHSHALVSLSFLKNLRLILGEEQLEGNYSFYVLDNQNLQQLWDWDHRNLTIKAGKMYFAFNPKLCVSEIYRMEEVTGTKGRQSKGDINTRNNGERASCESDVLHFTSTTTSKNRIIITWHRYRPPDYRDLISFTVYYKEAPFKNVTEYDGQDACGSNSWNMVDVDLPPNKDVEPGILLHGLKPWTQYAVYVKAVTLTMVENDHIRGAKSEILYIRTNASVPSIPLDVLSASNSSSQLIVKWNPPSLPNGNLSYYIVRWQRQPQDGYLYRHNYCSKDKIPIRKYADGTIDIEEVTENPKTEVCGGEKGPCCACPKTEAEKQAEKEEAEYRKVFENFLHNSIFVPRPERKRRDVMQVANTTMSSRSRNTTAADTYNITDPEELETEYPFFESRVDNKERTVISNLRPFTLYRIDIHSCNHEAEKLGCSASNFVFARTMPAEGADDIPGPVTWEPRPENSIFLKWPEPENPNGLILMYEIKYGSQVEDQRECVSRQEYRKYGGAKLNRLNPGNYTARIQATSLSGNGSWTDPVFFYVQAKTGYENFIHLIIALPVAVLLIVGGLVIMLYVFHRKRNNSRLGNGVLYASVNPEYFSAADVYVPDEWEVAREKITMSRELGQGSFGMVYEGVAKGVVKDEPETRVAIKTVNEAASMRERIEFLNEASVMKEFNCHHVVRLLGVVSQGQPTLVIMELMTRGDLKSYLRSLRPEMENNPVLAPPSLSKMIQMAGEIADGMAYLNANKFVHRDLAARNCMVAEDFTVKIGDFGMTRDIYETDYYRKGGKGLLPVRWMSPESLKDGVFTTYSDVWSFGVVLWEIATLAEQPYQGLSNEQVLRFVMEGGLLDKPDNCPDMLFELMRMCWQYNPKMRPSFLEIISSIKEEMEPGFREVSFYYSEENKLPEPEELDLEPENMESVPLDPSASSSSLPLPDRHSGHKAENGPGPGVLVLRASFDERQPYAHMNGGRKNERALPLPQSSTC
Method in brief: as §1

| Structure (SMILES) | remaining activity at 1 µM (ABL) | remaining activity at 1 µM (CSK) | remaining activity at 1 µM (DYRK2) | remaining activity at 1 µM (EIF2AK3) | remaining activity at 1 µM (MAPKAP-K2) | remaining activity at 1 µM (MKK1) | remaining activity at 1 µM (PHK) | remaining activity at 1 µM (TESK1) | remaining activity at 1 µM (TTBK1) | remaining activity at 1 µM (IGF-1R) |
| --- | --- | --- | --- | --- | --- | --- | --- | --- | --- | --- |
| N=C(N)NCCC[C@@H](NC(=O)CCCCCNC(=O)Cn1cnc2c(I)c(I)c(I)c(I)c21)C(=O)N[C@H](CCCNC(=N)N)C(=O)N[C@H](CCCNC(=N)N)C(=O)N[C@H](CCCNC(=N)N)C(=O)N[C@H](CCCNC(=N)N)C(=O)N[C@H](CCCNC(=N)N)C(=O)N[C@H](CCCCN)C(N)=O [ARC-3125, TIBI-CH2-C(=O)-Ahx-(D-Arg)6-D-Lys-NH2] | 106% | 85 ± 2% | 54 ± 6% | 11 ± 11% | 51 ± 5% | 32 ± 27% | 104 ± 11% | 102 ± 3% | 123 ± 25% |  |
| N=C(N)NCCC[C@@H](NC(=O)CNC(=O)[C@@H](CCCNC(=N)N)NC(=O)[C@@H](CCCNC(=N)N)NC(=O)CCCCCCCNCc1nc2c(sc3cc(Br)cnc32)c(=O)[nH]1)C(=O)N[C@H](CCCCN)C(N)=O [Compound 1, BPTP-Aoc-(D-Arg)2-Gly-D-Arg-D-Lys-NH2] | 94 ± 8% | 141 ± 10% | 85 ± 17% | 94 ± 7% | 107 ± 10% | 93 ± 4% | 109 ± 3% | 111 ± 11% | 116 ± 5% | 77 ± 8% |
| N=C(N)NCCC[C@@H](NC(=O)CNC(=O)[C@@H](CCCNC(=N)N)NC(=O)[C@@H](CCCNC(=N)N)NC(=O)CCCCCCCNCc1nc2c(sc3ccc(Br)cc32)c(=O)[nH]1)C(=O)N[C@H](CCCCN)C(N)=O [Compound 2, BBTP-Aoc-(D-Arg)2-Gly-D-Arg-D-Lys-NH2] | 89 ± 5% | 112 ± 20% | 64 ± 5% | 98 ± 5% | 107 ± 2% | 94 ± 1% | 98 ± 4% | 106 ± 13% | 97 ± 7% | 91 ± 6% |
| N=C(N)NCCC[C@@H](NC(=O)CCCCCNCc1nc2c(sc3cc(Br)cnc32)c(=O)[nH]1)C(=O)N[C@H](CCCNC(=N)N)C(=O)N[C@H](CCCNC(=N)N)C(=O)N[C@H](CCCNC(=N)N)C(=O)N[C@H](CCCNC(=N)N)C(=O)N[C@H](CCCNC(=N)N)C(=O)N[C@H](CCCCN)C(N)=O [ARC-3126, BPTP-Ahx-(D-Arg)6-D-Lys-NH2] (X3-[dR][dR][dR][dR][dR][dR][dK]-NH2) | 116 ± 5% | 91 ± 18% | 88 ± 6% | 60 ± 6% |  | 100 ± 6% | 128 ± 10% | 99 ± 14% | 103 ± 4% | 114 ± 24% |
| N=C(N)NCCC[C@@H](NC(=O)CNC(=O)[C@@H](CCCNC(=N)N)NC(=O)[C@@H](CCCNC(=N)N)NC(=O)Cn1cc(CNCc2nc3c(sc4ccc(Br)cc43)c(=O)[nH]2)nn1)C(=O)N[C@H](CCCCN)C(N)=O [Compound 3, BBTP-Amt-(D-Arg)2-Gly-D-Arg-D-Lys-NH2] | 91 ± 12% | 116 ± 5% | 83 ± 22% | 113 ± 13% | 114 ± 4% | 92 ± 6% | 78 ± 6% | 105 ± 1% | 99 ± 6% | 58 ± 7% |
